From patent US20260069707A1, “COMBINATION THERAPY WITH ANTIBODY-DRUG CONJUGATES AND HYALURONIDASES” (HALOZYME, INC., priority 2024, published 2026)

Legend:
[1] = Post-injection bleb volume, area, height - caliper measurement; format: in vivo, Yucatan miniature pig (Sus scrofa domestica)
Experimental: The needle was inserted vertically into the marked injection site and the HVAI held in place by hand. Target needle insertion depth was ˜10 mm. Injections were timed using a stopwatch. Upon completion of the injection the needle was removed and the HVAI device discarded. Test solution back-leakage was then absorbed to a tared eye-spear for 30 seconds on the injection site and the weight of the eye spear was measured using an analytical balance. The margins of the injection site bleb were marked with a permanent marker and measured for length, width, and height using a digital caliper and recorded then photographed with the standard and 3D cameras. Caliper measurements and photographs were taken immediately post-injection. Local injection sites were qualitatively assessed and graded daily for erythema severity, swelling size appearance, and firmness, using a scoring system described in Table 4 Table 5, and Table 6, respectively.
Assessment of Local Swelling Volume and Area Using Caliper Measurement and 3D Imaging. Volume and area of post-injection swelling were measured using both caliper measurement and 3D camera image analysis. For caliper measurements a digital caliper was utilized to measure length, width and height of the bleb that formed post-injection. The length and width are defined as the edge to edge measurements of the bleb (i.e., diameter) along their longest axes. These values were manually recorded, and the volume determined using the formula for half of an ellipsoid Vol=(⅔)*π*A*B*C where A=Length/2, B=Width/2 and C=Height.
Assessment of Post-Injection Bleb Volume, Area and Height (Caliper Measurements). The local injection site swelling (bleb) was marked and measured using a digital caliper.

[2] = Post-injection bleb volume, area, height - 3D imaging; format: in vivo, Yucatan miniature pig (Sus scrofa domestica); conditions: minipig, 10 mL SC by HVAI, T0; n=3 alone, n=2 with rHuPH20
Experimental: 3D imaging was applied as a longitudinal methodology to measure post-injection swelling. By obtaining high definition pre- and post-injection 3D images the distances between two registered surfaces can be determined. The camera captures images using a factory calibrated bifocal imaging system to measure distance between surfaces. Surface registration was performed using a multipoint method that utilized common landmarks between the pre-injection image and the post-injection image. Using the proprietary software, the volume, area and height of the post-injection swelling was calculated for each injection (Canfield Biosciences, Inc.).
Assessment of Post-Injection Bleb Shape, Volume, Area and Height (3D Imaging). Pre- and post-injection photographs were taken using a 3D imaging system (Canfield Scientific). This technology permits point-to-point alignment of these two images through multipoint surface registration. The distance between any two points is then represented using a colorimetric surface contour map. […] The color intensity is proportional to the amount of distance measured between images with darker blue color indicating greater distance from the pre-injection image. Out of range measurements (distances greater than 6 mm) are depicted in white. Bleb measurements of volume and height include regions out of range.
These registered pre-/post-injection images were then used to calculate the bleb volume, height, circumference, length, and width for each bleb using proprietary software (Vectra H1 software; Canfield Sciences).

[3] = Calculation of drug to antibody ratio (DAR); conditions: for ADC:free Ab / free Ab:ADC: after adjustment factor
Text: The Drug-to-Antibody Ratio (DAR) is a critical parameter in antibody drug conjugate development, representing the average number of drug molecules attached to each antibody molecule.

[4] = Example 4 Study #1: bleb after 20 mL SC
[5] = Example 4 Study #2: bleb after 20 mL SC

For Sacituzumab govitecan [Trodelvy], the “Height (mm) (Mean ± SEM)” value [1, 4] was 10.8 ± 0.6 mm, the “Volume (cc) (Mean ± SEM)” value [1, 4] was 65.5 ± 3.6 cc and the “Height (mm) (Mean ± SEM)” value [1, 5] was 10.8 ± 0.6 mm. For the same substance, the “Volume (cc) (Mean ± SEM)” value [1, 5] was 65.5 ± 3.6 cc, the “Post-injection bleb Area, caliper (Mean ± SEM)” value ([1]; minipig, 10 mL SC by HVAI, Trodelvy (ADC) ± rHuPH20 2000 U/mL, T0, n=3, Examples 1, 2, 5) was 25.4 ± 0.5 and the “Post-injection bleb Volume, caliper (Mean ± SEM)” value ([1]; minipig, 10 mL SC by HVAI, Trodelvy (ADC) ± rHuPH20 2000 U/mL, T0, n=3, Examples 1, 2, 5 (FIG. 3: mL)) was 44.3 ± 4.0. The “Post-injection bleb Height, caliper (Mean ± SEM)” value ([1]; minipig, 10 mL SC by HVAI, Trodelvy (ADC) ± rHuPH20 2000 U/mL, T0, n=3, Examples 1, 2, 5 (FIG. 5: mm)) was 8.7 ± 0.7, the “Bleb Area (cm^2), 3D imaging (Mean ± SEM)” value [2] was 30.5 ± 2.9 cm^2 and the “Bleb Height (mm), 3D imaging (Mean ± SEM)” value [2] was 7.6 ± 1.2 mm. The “Bleb Volume (mL), 3D imaging (Mean ± SEM)” value [2] was 8.1 ± 0.7 mL, the “% DAR remaining (which may be ~ADC/ total Ab)” value ([3]; Day 1) was 76.2% and the “% DAR remaining after adjustment factor to allow for variability (line without head)” value (“% DAR remaining … (line without head)” for short) ([3]; Day 1) was 68.6%. For the same substance, the “ADC:free Ab” value ([3]; Day 1) was 218.2%, the “free Ab:ADC” value ([3]; Day 1) was 45.8% and the “% DAR remaining (which may be ~ADC/ total Ab)” value ([3]; Day 7) was 42.9%. For the same substance, the “% DAR remaining … (line without head)” value ([3]; Day 7) was 34.3%, the “ADC:free Ab” value ([3]; Day 7) was 52.2% and the “free Ab:ADC” value ([3]; Day 7) was 191.7%. The “% DAR remaining (which may be ~ADC/ total Ab)” value ([3]; Day 14) was 31.0%, the “% DAR remaining … (line without head)” value ([3]; Day 14) was 24.8% and the “ADC:free Ab” value ([3]; Day 14) was 32.9%. The “free Ab:ADC” value ([3]; Day 14) was 303.8%, the “% DAR remaining (which may be ~ADC/ total Ab)” value ([3]; Day 21) was 23.8% and the “% DAR remaining … (line without head)” value ([3]; Day 21) was 19.0%. The “ADC:free Ab” value ([3]; Day 21) was 23.5% and the “free Ab:ADC” value ([3]; Day 21) was 425.0%.
